Measured values reported in patent publication US20220041736A1 (Amgen, published 2022).

T1: tamarin 1-27 CD3ε-EpCAM (Saguinus oedipus CD3 epsilon 1-27 / …)
T1 construct: Transmembrane fusion on 293-HEK or CHO cells; also called 1-27 CD3-EpCAM comprising the tamarin 27 mer
T1 chain: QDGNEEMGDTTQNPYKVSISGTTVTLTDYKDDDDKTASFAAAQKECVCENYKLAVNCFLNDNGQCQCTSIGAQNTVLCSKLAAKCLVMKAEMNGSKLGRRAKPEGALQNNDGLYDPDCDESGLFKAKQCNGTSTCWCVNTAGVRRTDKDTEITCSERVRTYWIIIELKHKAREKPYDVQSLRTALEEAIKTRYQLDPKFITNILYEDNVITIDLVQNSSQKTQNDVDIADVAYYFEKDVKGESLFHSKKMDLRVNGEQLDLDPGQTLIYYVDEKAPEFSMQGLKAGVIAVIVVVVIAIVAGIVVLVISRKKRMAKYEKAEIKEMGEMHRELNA

T2: human 1-27 CD3ε-EpCAM (1-27 N-terminal amino acids of human CD3 epsilon, Flag tag, cynomolgus EpCAM) (human CD3 epsilon 1-27 / cynomolgus …)
T2 construct: also called 1-27 CD3-EpCAM comprising the human 27 mer
T2 chain: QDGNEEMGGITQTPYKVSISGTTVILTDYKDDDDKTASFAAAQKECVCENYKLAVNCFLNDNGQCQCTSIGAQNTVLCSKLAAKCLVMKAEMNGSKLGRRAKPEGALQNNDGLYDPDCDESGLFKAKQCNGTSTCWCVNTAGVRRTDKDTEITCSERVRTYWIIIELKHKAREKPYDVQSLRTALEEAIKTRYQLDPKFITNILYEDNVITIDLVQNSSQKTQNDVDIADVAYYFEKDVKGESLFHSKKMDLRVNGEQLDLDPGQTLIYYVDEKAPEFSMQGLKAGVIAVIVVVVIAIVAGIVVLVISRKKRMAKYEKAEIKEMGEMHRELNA

T3: marmoset 1-27 CD3ε-EpCAM (Callithrix jacchus CD3 epsilon 1-27 / …)
T3 construct: Transmembrane fusion on 293-HEK or CHO cells; also called 1-27 CD3-EpCAM comprising the marmoset 27 mer
T3 chain: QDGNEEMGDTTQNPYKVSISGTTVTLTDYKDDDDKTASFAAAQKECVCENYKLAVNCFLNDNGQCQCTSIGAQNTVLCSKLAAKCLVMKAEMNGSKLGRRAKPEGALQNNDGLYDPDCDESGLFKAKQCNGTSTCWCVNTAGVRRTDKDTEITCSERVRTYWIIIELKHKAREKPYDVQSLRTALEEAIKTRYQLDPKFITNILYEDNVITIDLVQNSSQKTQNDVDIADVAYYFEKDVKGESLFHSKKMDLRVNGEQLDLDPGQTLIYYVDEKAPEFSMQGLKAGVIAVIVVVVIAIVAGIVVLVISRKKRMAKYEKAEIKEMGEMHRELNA

T4: squirrel monkey 1-27 CD3ε-EpCAM (Saimiri sciureus CD3 epsilon 1-27 / …)
T4 construct: Transmembrane fusion on 293-HEK or CHO cells; also called 1-27 CD3-EpCAM comprising the squirrel monkey 27 mer
T4 chain: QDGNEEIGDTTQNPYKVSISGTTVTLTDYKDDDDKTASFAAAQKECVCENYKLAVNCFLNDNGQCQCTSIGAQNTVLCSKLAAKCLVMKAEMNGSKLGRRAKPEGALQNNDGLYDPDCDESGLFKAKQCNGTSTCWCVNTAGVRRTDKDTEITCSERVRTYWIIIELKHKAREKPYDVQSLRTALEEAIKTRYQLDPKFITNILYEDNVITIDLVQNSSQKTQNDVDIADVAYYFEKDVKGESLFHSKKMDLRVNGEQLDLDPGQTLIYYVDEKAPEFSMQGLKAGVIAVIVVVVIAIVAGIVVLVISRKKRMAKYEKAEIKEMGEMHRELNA

T5: swine 1-27 CD3ε-EpCAM (Sus scrofa CD3 epsilon 1-27 / …)
T5 construct: Negative control construct on 293-HEK or CHO cells; also called 1-27 CD3-EpCAM comprising the swine 27 mer
T5 chain: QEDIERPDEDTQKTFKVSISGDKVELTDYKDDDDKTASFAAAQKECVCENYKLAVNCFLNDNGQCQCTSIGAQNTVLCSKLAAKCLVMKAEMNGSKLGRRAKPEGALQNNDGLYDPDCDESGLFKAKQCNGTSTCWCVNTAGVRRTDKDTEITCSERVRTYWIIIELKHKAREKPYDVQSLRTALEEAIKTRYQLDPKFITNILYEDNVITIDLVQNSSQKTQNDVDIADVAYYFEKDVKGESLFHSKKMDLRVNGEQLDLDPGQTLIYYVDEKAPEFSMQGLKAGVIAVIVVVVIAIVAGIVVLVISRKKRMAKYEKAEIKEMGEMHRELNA

T6: human 1-27 CD3 BSA conjugate (peptide of the N-terminal amino acids 1-27 of human CD3 epsilon plus C-terminal … (human, printed as acetyl-QDGNEEMGGITQTPYKVSISGTTVILTC; C-terminal Cys 28 coupled to maleimide activated BSA)
T6 construct: also called peptide-BSA conjugate
T6 peptide: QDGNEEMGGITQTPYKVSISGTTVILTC


Assays:
[1] = target: T7, 1-27 CD3-Fc (N-terminal amino acids 1-27 of the mature human CD3 epsilon chain fused to the hinge and Fc … (human)); assay: ELISA, captured 1-27 CD3-Fc, crude periplasmic scFv
T7 construct: Entry 229 is printed without the leader peptide; also called 27 aa huCD3ε; 1-27 CD3ε-Fc

tamarin 1-27 CD3ε-EpCAM = target: T1, tamarin 1-27 CD3ε-EpCAM; assay: FACS, transfected 293-HEK cells
[2] = target: T2, human 1-27 CD3ε-EpCAM (1-27 N-terminal …); assay: FACS, transfected 293-HEK cells
marmoset 1-27 CD3ε-EpCAM = target: T3, marmoset 1-27 CD3ε-EpCAM; assay: FACS, transfected 293-HEK cells
[3] = target: T4, squirrel monkey 1-27 CD3ε-EpCAM; assay: FACS, transfected 293-HEK cells
swine 1-27 CD3ε-EpCAM = target: T5, swine 1-27 CD3ε-EpCAM; assay: FACS, transfected 293-HEK cells, crude periplasmic scFv
[4] = target: T8, BSA (bovine serum albumin, blocking agent) (bovine, UniProt P02769 25-607); assay: ELISA, blocked wells without antigen, crude periplasmic preparation
T8 construct: also called bovine Albumin, fraction V
T8 sequence (P02769 25-607 limits assumed): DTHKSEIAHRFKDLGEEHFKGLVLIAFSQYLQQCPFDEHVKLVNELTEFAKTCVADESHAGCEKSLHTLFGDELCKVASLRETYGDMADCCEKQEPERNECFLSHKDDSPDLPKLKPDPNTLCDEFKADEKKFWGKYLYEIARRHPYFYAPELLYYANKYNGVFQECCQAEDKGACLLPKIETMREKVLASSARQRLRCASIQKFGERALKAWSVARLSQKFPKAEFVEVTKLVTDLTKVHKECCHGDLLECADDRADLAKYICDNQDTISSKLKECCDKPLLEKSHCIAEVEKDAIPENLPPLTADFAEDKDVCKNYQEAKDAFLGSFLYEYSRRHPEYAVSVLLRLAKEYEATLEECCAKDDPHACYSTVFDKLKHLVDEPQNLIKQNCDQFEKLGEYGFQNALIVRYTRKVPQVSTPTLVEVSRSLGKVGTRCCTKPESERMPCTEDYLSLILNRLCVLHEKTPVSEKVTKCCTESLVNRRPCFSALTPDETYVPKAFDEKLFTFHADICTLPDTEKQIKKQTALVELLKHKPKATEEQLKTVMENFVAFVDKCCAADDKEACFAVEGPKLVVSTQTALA

[5] = target: T6, human 1-27 CD3 BSA conjugate (peptide …); assay: ELISA, immobilized antigen, crude periplasmic preparation
[6] = target: T7, 1-27 CD3-Fc (N-terminal amino acids …); assay: as above

| binding result [1] | binding result (tamarin 1-27 CD3ε-EpCAM) | binding result [2] | binding result (marmoset 1-27 CD3ε-EpCAM) | binding result [3] | binding result (swine 1-27 CD3ε-EpCAM) | binding result [4] | binding result [5] | binding result [6] | Binder |
| --- | --- | --- | --- | --- | --- | --- | --- | --- | --- |
| binds |  |  |  |  |  |  |  |  | A2J HLP single-chain antibody (scFv, Crude periplasmic preparation from pComb3H5BFlag/His; also called VH-VL-P of A2J) scFv: EVQLLESGGGLVQPGGSLKLSCAASGFTFNVYAMNWVRQAPGKGLEWVARIRSKYNNYATYYADSVKKRFTISRDDSKNTAYLQMNNLKTEDTAVYYCVRHGNFGNSYLSWWAYWGQGTLVTVSSGGGGSGGGGSGGGGSELVVTQEPSLTVSPGGTVTLTCRSSTGAVTSGYYPNWVQQKPGQAPRGLIGATDMRPSGTPARFSGSLLGGKAALTLSGVQPEDEAEYYCALWYSNRWVFGGGTKLTVLTGDYKDDDDKHHHHHH |
| binds | binds | binds | binds | binds | no binding |  |  |  | E2M HLP single-chain antibody (scFv, Crude periplasmic preparation; also called VH-VL-P of E2M) scFv: EVQLLESGGGLVQPGGSLKLSCAASGFTFNGYAMNWVRQAPGKGLEWVARIRSKYNNYATYYADSVKERFTISRDDSKNTAYLQMNNLKTEDTAVYYCVRHRNFGNSYLSWFAYWGQGTLVTVSSGGGGSGGGGSGGGGSELVVTQEPSLTVSPGGTVTLTCRSSTGAVTSGYYPNWVQQKPGQAPRGLIGATDMRPSGTPARFSGSLLGGKAALTLSGVQPEDEAEYYCALWYSNRWVFGGGTKLTVLTGDYKDDDDKHHHHHH |
|  |  |  |  |  |  | no binding | binds | binds | anti-CD3 single domain antibody CD3 3D-H11 (VHH, Crude periplasmic preparation from pComb3H5BFlag/His; also called V CD3 3D-H11) VHH: EVQLVESGGGLVQPGGSLRLSCAASGFTFDDYGMSWVRQAPGKWLEWVSDISWNGGSTYYADSVKGRFTISRDNAENTLYLQMNSLKPDDTAVYYCAKMGEGGWGANDYWGQGTQVTVSS |
